# From article PMC2990581, “Molecular imaging of glioblastoma multiforme using anti-insulin-like growth factor-binding protein-7 single-domain antibodies” (British Journal of Cancer, 2010)
# T1: recombinant human insulin-like growth factor-binding protein 7 (IGFBP7), R&D Systems (human) (UniProt Q16270)
# T1 sequence: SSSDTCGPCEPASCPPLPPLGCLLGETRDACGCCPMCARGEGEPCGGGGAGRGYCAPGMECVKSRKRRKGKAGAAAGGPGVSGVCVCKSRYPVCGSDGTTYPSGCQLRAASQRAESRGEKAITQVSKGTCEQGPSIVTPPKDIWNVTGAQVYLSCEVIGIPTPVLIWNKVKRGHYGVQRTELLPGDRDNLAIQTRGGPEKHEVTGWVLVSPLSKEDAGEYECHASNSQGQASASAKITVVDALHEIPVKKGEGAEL
# B1: anti-IGFBP7 single-domain antibody (sdAb) 4.43 (VHH)
# VHH: QVKLEESGGGLVQAGGSLRLSCAASGRTSRRYAMGWFRQAPGKEREFVAGISRSGDGTHYAYSVKGRFTISRDNAANTVELQMNSLKPEDTAVYFCAAARTAFYYYGNDYNYWGQGTQVTVSS
# notes: VHH isolated from an immune llama phage display library; For in vivo imaging the same sdAb was labelled with Cy5.5 succinimidyl ester (dye/antibody ratio of one) or conjugated to PEGylated Fe3O4 nanoparticles; also called anti-IGFBP7 sdAb; source: expressed periplasmically (vector pSJF2), purified by IMAC; not shown: c-Myc, C-terminal, kept
# Key:
# [1] = molecular target: IGFBP7 in mouse vessels of orthotopic U87MG.EGFRvIII glioblastoma (Mus musculus, UniProt Q61581); assay: cell-based or functional assay
# IGFBP7 in mouse vessels of orthotopic U87MG.EGFRvIII glioblastoma, sequence (Q61581 26-281): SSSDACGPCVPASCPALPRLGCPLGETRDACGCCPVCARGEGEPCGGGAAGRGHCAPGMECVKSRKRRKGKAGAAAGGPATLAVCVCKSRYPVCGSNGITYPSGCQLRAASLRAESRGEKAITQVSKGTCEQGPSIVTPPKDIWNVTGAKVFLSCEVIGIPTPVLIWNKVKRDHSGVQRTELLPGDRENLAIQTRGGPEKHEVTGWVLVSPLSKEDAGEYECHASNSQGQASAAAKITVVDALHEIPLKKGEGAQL
# [2] = molecular target: T2, IGFBP7 in human glioblastoma multiforme tissue (Homo sapiens, UniProt Q16270); assay: immunostaining of cells or tissue; frozen human or mouse brain tumour sections fixed in methanol; sdAb 4.43 (1:100 of 1 mg/ml) for 3 h at RT; detected with anti-c-myc antibody and alexa 647 secondary; conditions: one partner purified
# T2 construct: source: endogenous, frozen human GBM tissue sections
# [3] = molecular target: T1, recombinant human insulin-like growth factor-binding protein 7 (IGFBP7), R&D Systems (human); assay: SPR; Biacore 3000; ~1400 RU recombinant human IGFBP7 amine-coupled on a CM5 chip, ovalbumin as reference; sdAb flowed at 25-200 nM; 25°C; 10 mM HEPES pH 7.4, 150 mM NaCl, 3 mM EDTA, 0.005% P20; 40 μl/min; 1:1 kinetic fit of the 25 nM data, steady-state affinity model and Scatchard plot of the equilibrium data
binder,measurement,setting,value
B1,"brain tumour fluorescence signal by in vivo optical imaging 24 h after i.v. injection of 50 μg anti-IGFBP7 sdAb-Cy5.5, against negative control (NC) sdAb-Cy5.5",[1],6 fold
same,binding result,[2],binds
same,Kd,[3],20 nM
same,koff,[3],0.0013 s⁻¹
